± gives the uncertainty stated by the source.
B1: Ubiquitin-protein ligase residues 30 to 86; numbered along this chain, Q05086 (parent)
chain: KHLIERYYHQLTEGCGNEACTNEFCASCPTFLRMDNNAAAIKALELYKINAKLCDPH

Variants of: B1
Test: abundance fitness (aPCA) (normalised: wild type 0, dead -1); higher = more abundant; growth selection in yeast, the domain comes from the species named
Conditions: Homo sapiens

Row | Variant | abundance fitness
1 | KHLIERYYHQLTEGCGNEACANEFCASCPTFLRMDNNAAAIKALELYKINAKLCDPH [T21A] | 0.029 ± 0.054
2 | KHLIERYYHQLTEGCGNEACFNEFCASCPTFLRMDNNAAAIKALELYKINAKLCDPH [T21F] | -0.008 ± 0.12
3 | KHLIERYYHQLTEGCGNEACPNEFCASCPTFLRMDNNAAAIKALELYKINAKLCDPH [T21P] | -0.076 ± 0.077
4 | KHLIERYYHQLTEGCGNEACNNEFCASCPTFLRMDNNAAAIKALELYKINAKLCDPH [T21N] | 0.067 ± 0.093
5 | KHLIERYYHQLTEGCGNEACVNEFCASCPTFLRMDNNAAAIKALELYKINAKLCDPH [T21V] | -0.005 ± 0.058
6 | KHLIERYYHQLTEGCGNEACTNEFCDSCPTFLRMDNNAAAIKALELYKINAKLCDPH [A26D] | -0.67 ± 0.09
7 | KHLIERYYHQLTEGCGNEACTNEFCCSCPTFLRMDNNAAAIKALELYKINAKLCDPH [A26C] | -0.053 ± 0.08
8 | KHLIERYYHQLTEGCGNEACTNEFCFSCPTFLRMDNNAAAIKALELYKINAKLCDPH [A26F] | 0.077 ± 0.12
9 | KHLIERYYHQLTEGCGNEACTNEFCESCPTFLRMDNNAAAIKALELYKINAKLCDPH [A26E] | -0.332 ± 0.083
10 | KHLIERYYHQLTEGCGNEACTTEFCASCPTFLRMDNNAAAIKALELYKINAKLCDPH [N22T] | -0.12 ± 0.071
11 | KHLIERYYHQLTEGCGNEACTPEFCASCPTFLRMDNNAAAIKALELYKINAKLCDPH [N22P] | -0.916 ± 0.14
12 | KHLIERYYHQLTEGCGNEACTWEFCASCPTFLRMDNNAAAIKALELYKINAKLCDPH [N22W] | -0.73 ± 0.11
13 | KHLIERYYHQLTEGCGNEACTCEFCASCPTFLRMDNNAAAIKALELYKINAKLCDPH [N22C] | -0.532 ± 0.13
14 | KHLIERYYHQLTEGCGNEACTYEFCASCPTFLRMDNNAAAIKALELYKINAKLCDPH [N22Y] | -0.277 ± 0.088
15 | KHLIERYYHQLTEGCGNEACTFEFCASCPTFLRMDNNAAAIKALELYKINAKLCDPH [N22F] | -0.418 ± 0.09
16 | KHLIERYYHQLTEGCGNEACTSEFCASCPTFLRMDNNAAAIKALELYKINAKLCDPH [N22S] | -0.033 ± 0.06
17 | KHLIERYYHQLTEGCGNEACTGEFCASCPTFLRMDNNAAAIKALELYKINAKLCDPH [N22G] | -0.318 ± 0.062
18 | KHLIERYYHQLTEGCGNEACTREFCASCPTFLRMDNNAAAIKALELYKINAKLCDPH [N22R] | -0.638 ± 0.069
19 | KHLIERYYHQLTEGCGNEACTDEFCASCPTFLRMDNNAAAIKALELYKINAKLCDPH [N22D] | -0.602 ± 0.089
20 | KHLIERYYHQLTEGCGNEACTVEFCASCPTFLRMDNNAAAIKALELYKINAKLCDPH [N22V] | -0.301 ± 0.061
21 | KHLIERYYHQLTEGCGNEACTEEFCASCPTFLRMDNNAAAIKALELYKINAKLCDPH [N22E] | -0.236 ± 0.072
22 | KHLIERYYHQLTEGCGNEACTHEFCASCPTFLRMDNNAAAIKALELYKINAKLCDPH [N22H] | -0.345 ± 0.12
23 | KHLIERYYHQLTEGCGNEACTIEFCASCPTFLRMDNNAAAIKALELYKINAKLCDPH [N22I] | -0.492 ± 0.14
24 | KHLIERYYHQLTEGCGNEACTLEFCASCPTFLRMDNNAAAIKALELYKINAKLCDPH [N22L] | -0.727 ± 0.065

Row | Variant | abundance fitness
25 | KHLIERYYHQLTEGCGNEACTMEFCASCPTFLRMDNNAAAIKALELYKINAKLCDPH [N22M] | -0.478 ± 0.073
26 | KHLIERYYHQLTEGCGNEACTQEFCASCPTFLRMDNNAAAIKALELYKINAKLCDPH [N22Q] | -0.286 ± 0.087
27 | KHLIERYYHQLTEGCGNEACTKEFCASCPTFLRMDNNAAAIKALELYKINAKLCDPH [N22K] | -0.831 ± 0.1
28 | KHLIERYYHQLTEGCGNEAWTNEFCASCPTFLRMDNNAAAIKALELYKINAKLCDPH [C20W] | -0.98 ± 0.088
29 | KHLIERYYHQLTEGCGNEAYTNEFCASCPTFLRMDNNAAAIKALELYKINAKLCDPH [C20Y] | -0.717 ± 0.36
30 | KHLIERYYHQLTEGCGNEACTNETCASCPTFLRMDNNAAAIKALELYKINAKLCDPH [F24T] | -0.018 ± 0.065
31 | KHLIERYYHQLTEGCGNEACTNERCASCPTFLRMDNNAAAIKALELYKINAKLCDPH [F24R] | -0.095 ± 0.049
32 | KHLIERYYHQLTEGCGNEACTNEHCASCPTFLRMDNNAAAIKALELYKINAKLCDPH [F24H] | 0.028 ± 0.097
33 | KHLIERYYHQLTEGCGNEACTNEWCASCPTFLRMDNNAAAIKALELYKINAKLCDPH [F24W] | 0.07 ± 0.062
34 | KHLIERYYHQLTEGCGNEACTNEQCASCPTFLRMDNNAAAIKALELYKINAKLCDPH [F24Q] | 0.016 ± 0.08
35 | KHLIERYYHQLTEGCGNEACTNEYCASCPTFLRMDNNAAAIKALELYKINAKLCDPH [F24Y] | -0.026 ± 0.086
36 | KHLIERYYHQLTEGCGNEACTNEVCASCPTFLRMDNNAAAIKALELYKINAKLCDPH [F24V] | -0.03 ± 0.052
37 | KHLIERYYHQLTEGCGNEACTNESCASCPTFLRMDNNAAAIKALELYKINAKLCDPH [F24S] | -0.033 ± 0.056
38 | KHLIERYYHQLTEGCGNEACTNEMCASCPTFLRMDNNAAAIKALELYKINAKLCDPH [F24M] | -0.031 ± 0.071
39 | KHLIERYYHQLTEGCGNEACTNEGCASCPTFLRMDNNAAAIKALELYKINAKLCDPH [F24G] | -0.057 ± 0.048
40 | KHLIERYYHQLTEGCGNEACTNEACASCPTFLRMDNNAAAIKALELYKINAKLCDPH [F24A] | -0.041 ± 0.056
41 | KHLIERYYHQLTEGCGNEACTNEECASCPTFLRMDNNAAAIKALELYKINAKLCDPH [F24E] | -0.057 ± 0.068
42 | KHLIERYYHQLTEGCGNEACTNENCASCPTFLRMDNNAAAIKALELYKINAKLCDPH [F24N] | -0.017 ± 0.095
43 | KHLIERYYHQLTEGCGNEACTNEPCASCPTFLRMDNNAAAIKALELYKINAKLCDPH [F24P] | -0.734 ± 0.088
44 | KHLIERYYHQLTEGCGNEACTNEICASCPTFLRMDNNAAAIKALELYKINAKLCDPH [F24I] | -0.024 ± 0.083
45 | KHLIERYYHQLTEGCGNEACTNEKCASCPTFLRMDNNAAAIKALELYKINAKLCDPH [F24K] | -0.041 ± 0.073
46 | KHLIERYYHQLTEGCGNEACTNEDCASCPTFLRMDNNAAAIKALELYKINAKLCDPH [F24D] | -0.026 ± 0.08
47 | KHLIERYYHQLTEGCGNEACTNELCASCPTFLRMDNNAAAIKALELYKINAKLCDPH [F24L] | -0.016 ± 0.055
